Results as given in article PMC8293591, “Vibrio vulnificus induces the death of a major bacterial species in the mouse gut via cyclo-Phe-Pro” (Microbiome, 2021).

What was measured:
[1] = molecular target: recombinant ObgE of Bacteroides vulgatus MGM001, nucleotide-free (Bacteroides vulgatus MGM001); experiment: ITC; MicroCal iTC200; nucleotide-free rObgE (40 μM) titrated with 400 μM cyclic dipeptide at 25 °C in 20 mM HEPES (pH 7.5), 150 mM NaCl, 5 mM MgCl2, 1 mM β-mercaptoethanol; single binding site model
ObgE (rObgE) = molecular target: T1, ObgE (rObgE) (Phocaeicola vulgatus, UniProt A6L100); experiment: isothermal titration calorimetry; assay type: binding
T1 construct: gene obg; 45 kDa; nucleotide-free (alkaline phosphatase, gel filtration)
T1 sequence (A6L100 1-394): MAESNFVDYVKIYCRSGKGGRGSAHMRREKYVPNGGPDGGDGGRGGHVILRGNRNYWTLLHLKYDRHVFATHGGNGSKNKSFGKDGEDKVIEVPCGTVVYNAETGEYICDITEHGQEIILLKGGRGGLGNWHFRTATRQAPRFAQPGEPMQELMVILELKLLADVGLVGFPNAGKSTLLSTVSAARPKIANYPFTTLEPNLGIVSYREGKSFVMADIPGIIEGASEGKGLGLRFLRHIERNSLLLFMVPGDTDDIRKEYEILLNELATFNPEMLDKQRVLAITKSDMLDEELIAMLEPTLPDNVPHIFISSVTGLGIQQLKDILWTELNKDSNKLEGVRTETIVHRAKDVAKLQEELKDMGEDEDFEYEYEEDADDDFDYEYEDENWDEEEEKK

In the case of cyclo-(phenylalanine-proline) (peptide), the Kd [1] is reported as 1800 nM and the stoichiometry N [1] is reported as 0.78.
Molecule `O=C1N[C@@H](Cc2ccccc2)C(=O)N2CCC[C@@H]12` [cFP] has a Kd (ObgE (rObgE)) of 1800 ± 350 nM.
